Results as given in US20230122364A1 (VANDERBILT UNIVERSITY, published 2023).
Substitutions are numbered along the chain they refer to.

B1: COV2-2113 (antibody, V domains shown)
VH: EVQLVESGGGLIQPGGSLRLSCAASEVTVSSNYMSWVRQAPGKGLEWVSLIYSGGTTYYADSVKGRFTISRDNSKNTLYLQMNSLRAEDTAVYYCARDFLRWHDLWGQGTLVTVSS
VL: DIQMTQSPSSLSASVGDRVTITCQASQDINNYLNWYQQKPGKAPKLLIYDASNLETGVPLRFSGSGSGTDFIFTISSLQPEDIATYYCQQYDNLPPVFGGGTKVEIK
B2: COV2-2098 (antibody, V domains shown)
VH: EVQLLESGGGLIQPGGSLRLSCAASGFTFSNYAMSWVRQAPGKGLEWVSGIISTSGGATYNADSVRGRFTTSRDNSKNILYLQMNSLRGEDTAVYYCVKGLFDWFPLWGQGTMVTVSS
VL: DIVMTQSPATLSVSPGERAILSCRASQSVRSNLAWYQQKPGQAPRLLISGASTRATAIPARFSGSGSGTEFTLTITSLQSEDCAVYYCHQYNNWPQTFGQGTKVEIK
B3: COV2-2103 (antibody, V domains shown)
VH: EVQLVESGGGLVQPGGSLRLSCAASGFTFSRHWMTWVRQAPGKGLEWVANIKQDGSEKYYVDSVKGRLTISRDNAKNSLYLQMNSLRAEDTAVYYCARLGFYYGGADYWGQGTLVTVSS
VL: NFMLTQPHSVSESPGKTVTISCTGSSGSIASNYVQWYQQRPGSAPTTVISEDNQRPSGVPDRFSGSIDSSSNSASLTISGLKTEDEADYYCQSYDGINRAWVFGGGTKLTVL
B4: COV2-2050 (antibody, V domains shown)
VH: QVQLVQSGAEVKKPGASVKVSCKASGYTFTDYYMHWVRQAPGQGLEWMGWINPNSRGTNYAQKFQGRVTMTRDTSISTVYMELSRLTSDDTAVYYCARVVVLGYGRPNNYYDGRNVWDYWGQGTLVTVSS
VL: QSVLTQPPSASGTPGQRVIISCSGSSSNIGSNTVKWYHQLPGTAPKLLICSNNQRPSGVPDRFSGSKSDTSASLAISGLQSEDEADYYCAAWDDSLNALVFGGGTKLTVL
B5: COV2-2082 (antibody, V domains shown)
VH: EVQLVESGGGVVRPGGSLRLSCAASGFIFDDYDMTWVRQAPGKGLEWVSGISWNGGNTGYADSVKGRFTISRDNAKNSLYLQMNSLRAEDTALYHCAVIMSPIPRYSGYDWAGGAFDIWGQGTMVTVSS
VL: SSELTQDPAVSVALGQTVRITCQGDSLRSYYASWYQQKPGQVPILVIYDKNNRPSGIPDRFSGSSSGNTASLTITGAQAEDEADYYCNSRDSSGNAVVFGGGTKLTVL
B6: COV2-2068 (antibody, V domains shown)
VH: EVQLVESGGGLVQPGGSLRLSCAASGFTVSSNYMSWVRQAPGKGLEWVSVIYPGGSAFYADSVKGRFTISRHNSNNTLCLQMNSLRTEDTAVYYCARSYDILTGYRDAFDIWGQGTMVTVSS
VL: QSVLTQPPSVSGAPGQRVTISCTGSSSNIGSGSDVHWYQQLPGTAPKLLIYGNTNRPSGVPDRFSGSKSGTSASLAITGLQAEDEADYYCQSYDSRLSGFVVFGGGTKLTVL
B7: COV2-2132 (antibody, V domains shown)
VH: B1 VH
VL: B1 VL with I72T
B8: COV2-2961 (antibody, V domains shown)
VH: EVQLVQSGPEVKKPGTSVKVSCKASGFTFMSSAVQWVRQARGQRLEWIGWIVIGSGNTNYAQKFQERVTITRDMSTSTAYMELSSLRSEDTAVYYCAAPYCSSISCNDGFDIWGQGTMVTVSS
VL: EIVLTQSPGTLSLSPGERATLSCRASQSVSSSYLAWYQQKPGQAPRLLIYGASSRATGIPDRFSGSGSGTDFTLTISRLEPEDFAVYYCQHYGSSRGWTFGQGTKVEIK
B9: COV2-2046 (antibody, V domains shown)
VH: EVQLVESGGGLVQPGRSLRLSCAASGFTFDDYAMHWVRQAPGKGLEWVSGISWNSGSIAYTDSVKGRFTISRDNAKNSLYLQMNSLRAEDTALYYCAKAHSTGHQYYYGMDVWGQGTTVTVSS
VL: DIQMTQSPSSLSASVGDRVTITCRASQSISSFLNWYQQKPGKAPKLLIYAAFNLQSGVPSRFSGSGSGTDFTLTISSLQSEDFATYYCQQSYNTPYTFGQGTKLEIK

What follows are binders tested against T1, SARS-CoV-2 spike (S) protein on authentic SARS-CoV-2 virus (strain WA1/2020) (SARS-CoV-2, UniProt P0DTC2 14-1273) (assay: cell-based or functional assay).
With B1 the “Neutralization IC50 (FRNT, authentic SARS-CoV-2 WA1/2020)” value (from here on “Neutralization IC50”) was 1.04 µg/mL.
For B2, the “Neutralization IC50” value was 1.03 µg/mL.
With B3 the “Neutralization IC50” value was 1.97 µg/mL.
For B4, the “Neutralization IC50” value was 0.08 µg/mL.
With B5 the “Neutralization IC50” value was 0.204 µg/mL.
For B6, the “Neutralization IC50” value was 0.478 µg/mL.

Biological target: T1, SARS-CoV-2 spike (S) protein on …
Assay: cell-based or functional assay
Remark: another data set of the same source
In the case of B1, the “Nano-luciferase virus reduction test, SARS-CoV-2, IC50” value (shortened to “Nano-luciferase virus reduction test”) is reported as less than 0.3 µg/mL and the “SARS-CoV-2 focus reduction test, IC50” value is reported as 0.427 µg/mL.
For B7, the “Nano-luciferase virus reduction test” value was less than 0.3 µg/mL and the “SARS-CoV-2 focus reduction test, IC50” value was 0.673 µg/mL.
B2 was tested, and the “Nano-luciferase virus reduction test” value was less than 0.1 µg/mL and the “SARS-CoV-2 focus reduction test, IC50” value was 0.776 µg/mL.
B3 was tested, and the “SARS-CoV-2 focus reduction test, IC50” value was greater than 1 µg/mL.
B8 was tested, and the “SARS-CoV-2 focus reduction test, IC50” value was 0.03 µg/mL.
B4 was tested, and the “Nano-luciferase virus reduction test” value was less than 0.05 µg/mL and the “SARS-CoV-2 focus reduction test, IC50” value was 0.025 µg/mL.
For B9, the “Nano-luciferase virus reduction test” value was less than 0.1 µg/mL and the “SARS-CoV-2 focus reduction test, IC50” value was 0.171 µg/mL.
In the case of B5, the “Nano-luciferase virus reduction test” value is reported as less than 0.2 µg/mL and the “SARS-CoV-2 focus reduction test, IC50” value is reported as 0.302 µg/mL.
In the case of B6, the “Nano-luciferase virus reduction test” value is reported as less than 0.3 µg/mL and the “SARS-CoV-2 focus reduction test, IC50” value is reported as 0.864 µg/mL.

What follows are binders tested against T2, SRBD subdomain of SARS-CoV-2 S protein (SARS-CoV-2, UniProt P0DTC2 319-541) (assay: ELISA on coated SRBD).
Binder B1 has an EC50 of 0.0006 µg/mL.
B2 gave an EC50 of 0.0007 µg/mL.
In the case of B3, the EC50 is reported as 0.0011 µg/mL.
In the case of B4, the EC50 is reported as 0.0016 µg/mL.
B5 was tested, and the EC50 was 0.0006 µg/mL.
For B6, the EC50 was 0.0012 µg/mL.

Each binder was assayed against T2, SRBD subdomain of SARS-CoV-2 S protein (assay: ELISA, purified IgG).
For B1, the “OD 450 nm” value was 4.4 OD 450 nm.
B2 was tested, and the “OD 450 nm” value was 4.2 OD 450 nm.
In the case of B3, the “OD 450 nm” value is reported as 4.3 OD 450 nm.
With B4 the “OD 450 nm” value was 4.3 OD 450 nm.
In the case of B5, the “OD 450 nm” value is reported as 4.3 OD 450 nm.
B6 was tested, and the “OD 450 nm” value was 4.3 OD 450 nm.

What follows are binders tested against T3, SARS-CoV-2 NTD (SARS-CoV-2, UniProt P0DTC2 14-305) (assay: ELISA, purified IgG).
T3 construct: domain: NTD
B7 was tested, and the “OD 450 nm” value was 0.15 OD 450 nm.
With B2 the “OD 450 nm” value was 0.15 OD 450 nm.
In the case of B3, the “OD 450 nm” value is reported as 0.12 OD 450 nm.
For B4, the “OD 450 nm” value was 0.12 OD 450 nm.
With B9 the “OD 450 nm” value was 0.09 OD 450 nm.
For B5, the “OD 450 nm” value was 0.11 OD 450 nm.
B6 was tested, and the “OD 450 nm” value was 0.1 OD 450 nm.
